B1: TPR t1 (parent)
chain: GACCAAUCUGCCCUCAGAGCUCGAGAACAUCUUCGGAUGCAGAGGAGGCAGGCUUCGGUGGCGCGAUAGCGCCAACGUCCUCAACCUCCAAUGCAUCCCACCACAUGAUGAUGCCUGAAGAGCCUUGGUUUUUUG

Variants of: B1
Assay: polymerase ribozyme fitness, log enrichment relative to wild type (log ratio); higher = more active; in vitro selection for triplet polymerase activity
Outline: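 Input and output libraries were sequenced on Illumina after a single in vitro selection round, run in triplicate on PCR-built, transcribed mutant libraries of each subunit of a heterodimeric triplet polymerase ribozyme. Selection annealed libraries to a biotinylated primer, the partner subunit and triplets, incubated them frozen at −7 °C, then gel-excised extended constructs for streptavidin-bead capture and RT-PCR. Genotypes with ≥10 input reads and ≥1 read per output were kept. Fitness is the logarithm, taken in base 2, of genotype enrichment divided by wild-type enrichment, using inverse-variance-weighted replicate averages.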

| Variant | polymerase ribozyme fitness (log ratio) |
| --- | --- |
| A18U C73U C101U G120A | -2.78 |
| G17U C31U C64G G93U C123A U130A | -5.64 |
| A18C A41G C101G | -5.9 |
| A16C C40G C56A | -3.75 |
| A16U G69U C98U A121C U130A | -0.111 |
| C15U U54C C72U | -1.39 |
| A16C U112C | -0.921 |
| A16U C40U U87G U92A | -5.02 |
| G17U A121G | 0.688 |
| G17C A29U U125G | -5.1 |
| G17C G25U C34U G69U U112G | -7.59 |
| C15U G71A C102A | -5.13 |
| A18U A46U | -3.64 |
| G17A U55A G63U A84G | -7.59 |
| A16U G51U | -4.76 |
| A16U U96A | -2.28 |
| A18G U32A C76U C124G | -2.81 |
| A16G C76G G120A | -2.25 |
| A16U C22G C64U | -4.96 |
| A18C G45A C53U G113A | -3.09 |
| A18U A24C A27U C40U G63C C89G U116A A121G | -5.65 |

| Variant | polymerase ribozyme fitness (log ratio) |
| --- | --- |
| G17C A37U C64U U92A | -5.44 |
| A16C G122A | -4.43 |
| A18G G120C | -0.633 |
| A18G G120U | -2.46 |
| G17A U78C U129C | -3.37 |
| A18G A68G U116G C123U | -5.7 |
| A16C G23C G61C G63A U87A A105G G110C | -7.62 |
| A16G C22U G45U C64G C86G A121C | -7.27 |
| A18U C98U A111C | -4.18 |
| A18U C22G G58U U59G U87G | -4.24 |
| A16U C104U | -1.25 |
| C15U G63A C73U A90C G110U | -5.03 |
| A16C C56U G69U G120A | -3.38 |
| A18G C70U C82A | -6.34 |
| A18C A43G G47C U54C C114U U126A | -5.87 |
| A18C G113U | -4.82 |
| G17C A29G C72A | -5.8 |
| A16U A43U U112C | -1.59 |
| A18U A43U | -1 |
| A16U C62U U81G A121U | -2.2 |
| A18C G39U C49U G120C | -4.35 |

| Variant | polymerase ribozyme fitness (log ratio) |
| --- | --- |
| C15U G63C U129C | -2 |
| G17A A66G | -4.85 |
| G17A G23U G61U C76U C114A | -5.73 |
| G17U A18C C53G | -3.98 |
| G17U U55A | -2.43 |
| A16G A41C A84U C99A G117C U133C | -4.53 |
| A18C G110A | -3.98 |
| A18C G39C A41U G60C C123U | -4.26 |
| A16U C56G | -2.56 |
| G17U C64U U78C | -3.17 |
| G17A G110A | -4.08 |
| A16G G93A U109G | -5.43 |
| G17A C123U | -2.01 |
| A18C C20U | -1.33 |
| A16U A46U C49A | -2.45 |
| A18G G63A C115A C123U | -6.7 |
| G17U G52U C62A C70U | -4.32 |
| A16U G77A G117U | -3.13 |
| A18C G135U | -3.23 |
| A16U C72G | -1.5 |
| A18G C80U | -3.36 |

| Variant | polymerase ribozyme fitness (log ratio) |
| --- | --- |
| G17U A18C G57C | -2.66 |
| G17U C49A G61A | -2.67 |
| A18G G117C | -3.04 |
| A18G G127U | -4.06 |
| A16U C89A | -2.6 |
| A18U A41U C114U C115G U116G A121G G122U | -3.05 |
| A18C U32C A37U A50U G60A A83U | -4.99 |
| A16C A46U G117A U133G | -6.47 |
| A18U C72G C115U G128A | -4.57 |
| A16C C20G U59G U106A G113A | -5.4 |
| A18G U81C C89U | -4.16 |
| A18U C76A C94U U112C | -1.22 |
| A16U C114A | -4.01 |
| A16C C62G A74G C114U | -5.78 |
| G17A A18C C22U G35A A75U C79G A90G C99A C124G | -5.46 |
| A16G G93A G120A G122U U130G | -3.58 |
| A18G C124U | -0.797 |
| A18C U32C A46U A90U C114U | -3.04 |
| A18C A83C A91G A111C | -3.03 |
| G17U G71A | -3.25 |

Source: the RNAGym collection of RNA variant scans (doi:10.1073/pnas.2313332121)
